The values that follow come from article PMC10415362, “Mechanism of U6 snRNA oligouridylation by human TUT1”.

The data set concerns the target T1, hTUT1_ZF-RRM (Homo sapiens, UniProt Q9H6E5 1-140).
T1 sequence: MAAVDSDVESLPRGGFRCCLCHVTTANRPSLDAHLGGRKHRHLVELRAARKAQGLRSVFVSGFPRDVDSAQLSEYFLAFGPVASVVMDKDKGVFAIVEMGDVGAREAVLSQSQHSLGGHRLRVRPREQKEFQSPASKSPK
In words: EMSA; 10 mM MgCl2; EMSA: 50 mM Tris-Cl pH 8.5, 100 mM NaCl, 10 mM MgCl2, 10 mM beta-mercaptoethanol, 10% glycerol, room temperature 15 min; RNA 50 nM (U6) or 100 nM (U6_mini); protein 0-1000 nM. The note with it: protein: recombinant; tags: His tag implied (pET22b, Ni-NTA); hairpin with 5' single strand. (In general: Mobility shift assays separate free from complexed probe on a gel.)

B1: U6_mini (structured_RNA)
RNA: GGAUACUAAAAUUGGAACGAUACAGAGUUCGCUCGUGAAGCGUUCCAUAUUUU
As to B1, the Kd is 204 ± 41 nM.

The Kd is a measure of binding affinity in units of concentration.
